Laboratory results as given in patent US10413607B2, “Antibody specifically binding to ErbB3 and use thereof” (ISU ABXIS CO., LTD., priority 2015, dated 2019).

Molecular target: T1, recombinant human ErbB3 protein (Homo sapiens, UniProt P21860)
T1 construct: purchased R&D systems
Test: Binding affinity of anti-ErbB3 antibody to human ErbB3 protein (Octet QK384)
Conditions: immobilized human ErbB3; for ka (association constant): binding phase about 900 seconds; for kd (dissociation constant): dissociation phase about 1200 seconds
Procedure: In particular, the binding affinities of the anti-ErbB3 antibodies to the recombinant human ErbB3 protein (R&D systems) and the antigen-antibody interactive dynamics were measured using an Octet® QK384 system (Pall Life Sciences). After activation of carboxyl groups in 20 mM of 1-ethyl-3-(3-dimethylaminopropyl)carbodiimide hydrochloride (EDC) and 40 mM of N-hydroxysulfosuccinimide (sulfo-NHS) solution on an AR2G sensor (ForteBio), 10 μg/mL of human ErbB3 protein solution diluted with 10 mM of sodium acetate (pH 4.0) (ForteBio) was added to immobilize human ErbB3 protein onto the AR2G sensor. The AR2G sensor to which the human ErbB3 protein was immobilized was treated with 1 M of ethanolamine (ForteBio) to inactivate the remaining unreacted carboxyl groups.

Molecule	ka (association constant) [M⁻¹ s⁻¹]	kd (dissociation constant) [s⁻¹]
442S9: modified anti-ErbB3 antibody from lead antibody 442P (CDR mutagenesis) (antibody, V domains shown, Heavy chain variable region of antibody 442S9; Light chain variable region of antibody 442S9) VH: EVQLLESGGGLVQPGGSLRLSCAASGFTFSDYDMSWVRQAPGKGLEWVSSIYPDSGSTYYADSVQGRFTISRDNSKNTLYLQMNSLRAEDTAVYYCAKDRHMWPEGPFDYWGQGTLVTVSS VL: QSVLTQPPSASGTPGQRVTISCSGSSSNIGSNSGSWYQQLPGTAPKLLIYADNHRPSGVPDRFSGSKSGTSASLAISGLRSEDEADYYCAAWDSSLSGYVFGGGTKLTVLG	821000	5.87e-05
442M8: modified anti-ErbB3 antibody from lead antibody 442P (CDR mutagenesis) (antibody, V domains shown, Heavy chain variable region of antibody 442M8; Light chain variable region of antibody 442M8) VH: EVQLLESGGGLVQPGGSLRLSCAASGFTFSDYDMSWVRQAPGKGLEWVSSIYPDSGSTYYADSVQGRFTISRDNSKNTLYLQMNSLRAEDTAVYYCAKDLHMGPEGPFDYWGQGTLVTVSS VL: QSVLTQPPSASGTPGQRVTISCSGSSSNIGSNSVSWYQQLPGTAPKLLIYSDNHRPSGVPDRFSGSKSGTSASLAISGLRSEDEADYYCHAWDSSLYVDVFGGGTKLTVLG	870000	2.23e-06
442M10: modified anti-ErbB3 antibody from lead antibody 442P (CDR mutagenesis) (antibody, V domains shown, Heavy chain variable region of antibody 442M10; Light chain variable region of antibody 442M10) VH: EVQLLESGGGLVQPGGSLRLSCAASGFTFSDYDMSWVRQAPGKGLEWVSSIYPDSGSTDYADSVQGRFTISRDNSKNTLYLQMNSLRAEDTAVYYCAKDLHMWPEGPFDYWGQGTLVTVSS VL: QSVLTQPPSASGTPGQRVTISCSGSSSNIGSNSVSWYQQLPGTAPKLLIYADNFRPSGVPDRFSGSKSGTSASLAISGLRSEDEADYYCAAWDSSLSGYVFGGGTKLTVLG	471000	<1e-07
442M5: modified anti-ErbB3 antibody from lead antibody 442P (CDR mutagenesis) (antibody, V domains shown, Heavy chain variable region of antibody 442M5; Light chain variable region of antibody 442M5) VH: EVQLLESGGGLVQPGGSLRLSCAASGFTFSDYDMSWVRQAPGKGLEWVSTIDLDSGSIYYADSVQGRFTISRDNSKNTLYLQMNSLRAEDTAVYYCAKDLHMGPEGPFDYWGQGTLVTVSS VL: QSVLTQPPSASGTPGQRVTISCSGSSSNIGSNSVSWYQQLPGTAPKLLIYSDNHRPSGVPDRFSGSKSGTSASLAISGLRSEDEADYYCHAWDSSLWGDVFGGGTKLTVLG	665000	<1e-07
472S2: modified anti-ErbB3 antibody from lead antibody 472P (CDR mutagenesis) (antibody, V domains shown, Heavy chain variable region of antibody 472S2; Light chain variable region of antibody 472S2) VH: EVQLLESGGGLVQPGGSLRLSCAASGFTFSWYDLAWVRQAPGKGLEWVSGISYDGGNTYYADSVKGRFTISRDNSKNTLYLQMNSLRAEDTAVYYCARDPSWCLQDLCYYADGMDVWGQGTLVTVSS VL: QSVLTQPPSASGTPGQRVTISCSGSSSNIGSNSVSWYQQLPGTAPKLLIYADSNRPSGVPDRFSGSKSGTSASLAISGLRSEDEADYYCGSWDYSLSGYVFGGGTKLTVLG	1.07e+06	<1e-07
472S3: modified anti-ErbB3 antibody from lead antibody 472P (CDR mutagenesis) (antibody, V domains shown, Heavy chain variable region of antibody 472S3; Light chain variable region of antibody 472S3) VH: EVQLLESGGGLVQPGGSLRLSCAASGFTFSWYDMSWVRQAPGKGLEWVSGISYDGGNTYYADSVKGRFTISRDNSKNTLYLQMNSLRAEDTAVYYCARDPSWCLQDLCYYADGMDVWGQGTLVTVSS VL: QSVLTQPPSASGTPGQRVTISCSGSSSNIGSNSVSWYQQLPGTAPKLLIYADSNRPSGVPDRFSGSKSGTSASLAISGLRSEDEADYYCGSWDYSLSGYVFGGGTKLTVLG	522000	1.43e-07
442M4: modified anti-ErbB3 antibody from lead antibody 442P (CDR mutagenesis) (antibody, V domains shown, Heavy chain variable region of antibody 442M4; Light chain variable region of antibody 442M4) VH: EVQLLESGGGLVQPGGSLRLSCAASGFTFSDYDMSWVRQAPGKGLEWVSTIDLDSGSIYYADSVQGRFTISRDNSKNTLYLQMNSLRAEDTAVYYCAKDLHMGPEGPFDYWGQGTLVTVSS VL: QSVLTQPPSASGTPGQRVTISCSGSSSNIGSNSVSWYQQLPGTAPKLLIYSDNHRPSGVPDRFSGSKSGTSASLAISGLRSEDEADYYCVGWDSSLYGHVFGGGTKLTVLG	573000	<1e-07
442M3: modified anti-ErbB3 antibody from lead antibody 442P (CDR mutagenesis) (antibody, V domains shown, Heavy chain variable region of antibody 442M3; Light chain variable region of antibody 442M3) VH: EVQLLESGGGLVQPGGSLRLSCAASGFTFSDYDMSWVRQAPGKGLEWVSSIYPDSGSTYYADSVQGRFTISRDNSKNTLYLQMNSLRAEDTAVYYCAKDRHMWPEGPFDYWGQGTLVTVSS VL: QSVLTQPPSASGTPGQRVTISCSGSSSNIGSNSGSWYQQLPGTAPKLLIYADNWRPSGVPDRFSGSKSGTSASLAISGLRSEDEADYYCAAWDSSLSGYVFGGGTKLTVLG	771000	2.62e-06
442M11: modified anti-ErbB3 antibody from lead antibody 442P (CDR mutagenesis) (antibody, V domains shown, Heavy chain variable region of antibody 442M11; Light chain variable region of antibody 442M11) VH: EVQLLESGGGLVQPGGSLRLSCAASGFTFSDYDMSWVRQAPGKGLEWVSTIEPDYGSTLYADSVQGRFTISRDNSKNTLYLQMNSLRAEDTAVYYCAKDLHMGPEGPFDYWGQGTLVTVSS VL: QSVLTQPPSASGTPGQRVTISCSGSSSNIGSNSVSWYQQLPGTAPKLLIYSDNHRPSGVPDRFSGSKSGTSASLAISGLRSEDEADYYCHAWDSSLSGDFFGGGTKLTVLG	1.49e+06	8.09e-06
472S1: modified anti-ErbB3 antibody from lead antibody 472P (CDR mutagenesis) (antibody, V domains shown, Heavy chain variable region of antibody 472S1; Light chain variable region of antibody 472S1) VH: EVQLLESGGGLVQPGGSLRLSCAASGFTFSWYDMTWVRQAPGKGLEWVSGISYDGGNTYYADSVKGRFTISRDNSKNTLYLQMNSLRAEDTAVYYCARDPSWCLQDLCYYADGMDVWGQGTLVTVSS VL: QSVLTQPPSASGTPGQRVTISCSGSSSNIGSNSVSWYQQLPGTAPKLLIYADSNRPSGVPDRFSGSKSGTSASLAISGLRSEDEADYYCGSWDYSLSGYVFGGGTKLTVLG	649000	3.33e-07
442M6: modified anti-ErbB3 antibody from lead antibody 442P (CDR mutagenesis) (antibody, V domains shown, Heavy chain variable region of antibody 442M6; Light chain variable region of antibody 442M6) VH: EVQLLESGGGLVQPGGSLRLSCAASGFTFSDYDMSWVRQAPGKGLEWVSSIEPDSGSTDYADSVQGRFTISRDNSKNTLYLQMNSLRAEDTAVYYCAKDRHMWPEGPFDYWGQGTLVTVSS VL: QSVLTQPPSASGTPGQRVTISCSGSSSNIGSNSGSWYQQLPGTAPKLLIYADNWRPSGVPDRFSGSKSGTSASLAISGLRSEDEADYYCAAWDSSLSGYVFGGGTKLTVLG	969000	1.95e-05
472S4: modified anti-ErbB3 antibody from lead antibody 472P (CDR mutagenesis) (antibody, V domains shown, Heavy chain variable region of antibody 472S4; Light chain variable region of antibody 472S4) VH: EVQLLESGGGLVQPGGSLRLSCAASGFTFSWYDIAWVRQAPGKGLEWVSGISYDGGNTYYADSVKGRFTISRDNSKNTLYLQMNSLRAEDTAVYYCARDPSWCLQDLCYYADGMDVWGQGTLVTVSS VL: QSVLTQPPSASGTPGQRVTISCSGSSSNIGSNSVSWYQQLPGTAPKLLIYADSNRPSGVPDRFSGSKSGTSASLAISGLRSEDEADYYCGSWDYSLSGYVFGGGTKLTVLG	1.15e+06	1.09e-05
